Literature values as cited in US10294487B2, “Methods and compositions involving ALS variants with native substrate preference” (E I DU PONT DE NEMOURS AND COMPANY, priority 2012, dated 2019).
Substitutions are numbered along the chain they refer to. Names and notes keep the numbering of the source.

Legend:
ALS [1] = conditions: cited from earlier work; for Kinetic parameters: Km / Kinetic parameters: kcat: pyruvate reaction
ALS [2] = conditions: cited from earlier work; for Resistance pattern, I50 fold increase: IM: imidazolinone(s); for Resistance pattern, I50 fold increase: SU: sulfonylurea(s)

B1: A122V: Site-directed mutation in A. thaliana ALS; position A122, 103 (protein, UniProt P17597 56-670, looked up, variant A122V)
Acetolactate synthase, …: SSSPSSISAVLNTTTNVTTTPSPTKPTKPETFISRFAPDQPRKGADILVEALERQGVETVFAYPGGVSMEIHQALTRSSSIRNVLPRHEQGGVFAAEGYARSSGKPGICIATSGPGATNLVSGLADALLDSVPLVAITGQVPRRMIGTDAFQETPIVEVTRSITKHNYLVMDVEDIPRIIEEAFFLATSGRPGPVLVDVPKDIQQQLAIPNWEQAMRLPGYMSRMPKPPEDSHLEQIVRLISESKKPVLYVGGGCLNSSDELGRFVELTGIPVASTLMGLGSYPCDDELSLHMLGMHGTVYANYAVEHSDLLLAFGVRFDDRVTGKLEAFASRAKIVHIDIDSAEIGKNKTPHVSVCGDVKLALQGMNKVLENRAEELKLDFGVWRNELNVQKQKFPLSFKTFGEAIPPQYAIKVLDELTDGKAIISTGVGQHQMWAAQFYNYKKPRQWLSSGGLGAMGFGLPAAIGASVANPDAIVVDIDGDGSFIMNVQELATIRVENLPVKVLLLNNQHLGMVMQWEDRFYKANRAHTFLGDPAQEDEIFPNMLLFAAACGIPAARVTKKADLREAIQTMLDTPGPYLLDVICPHQEHVLPMIPSGGTFNDVITEGDGRIKY
- Kinetic parameters: Kc for FAD (ALS [1]; cofactor activation constant, flavin adenine dinucleotide): Kc for FAD, 400 % wt
- Kinetic parameters: Kc for TPP (ALS [1]; cofactor activation constant, thiamin pyrophosphate): Kc for TPP, 2000 % wt
- Kinetic parameters: Km (ALS [1]): Km, 160 % wt
- Kinetic parameters: kcat (ALS [1]): kcat, 25 % wt
- Resistance pattern, I50 fold increase: IM (ALS [2]): IMs, 1000-2000 fold
- Resistance pattern, I50 fold increase: SU (ALS [2]): SUs, 4 fold

B2: F590L: Site-directed mutation in S. cerevisiae ALS; position F578, 559 (protein, UniProt P07342 91-687, looked up, variant F590L)
Acetolactate synthase …: GLTGGQIFNEMMSRQNVDTVFGYPGGAILPVYDAIHNSDKFNFVLPKHEQGAGHMAEGYARASGKPGVVLVTSGPGATNVVTPMADAFADGIPMVVFTGQVPTSAIGTDAFQEADVVGISRSCTKWNVMVKSVEELPLRINEAFEIATSGRPGPVLVDLPKDVTAAILRNPIPTKTTLPSNALNQLTSRAQDEFVMQSINKAADLINLAKKPVLYVGAGILNHADGPRLLKELSDRAQIPVTTTLQGLGSFDQEDPKSLDMLGMHGCATANLAVQNADLIIAVGARFDDRVTGNISKFAPEARRAAAEGRGGIIHFEVSPKNINKVVQTQIAVEGDATTNLGKMMSKIFPVKERSEWFAQINKWKKEYPYAYMEETPGSKIKPQTVIKKLSKVANDTGRHVIVTTGVGQHQMWAAQHWTWRNPHTFITSGGLGTMGYGLPAAIGAQVAKPESLVIDIDGDASFNMTLTELSSAVQAGTPVKILILNNEEQGMVTQWQSLLYEHRYSHTHQLNPDFIKLAEAMGLKGLRVKKQEELDAKLKEFVSTKGPVLLEVEVDKKVPVLPMVAGGSGLDEFINFDPEVERQQTELRHKRTGGKH
- Kinetic parameters: Km (ALS [1]): Km, 30 % wt
- Kinetic parameters: kcat (ALS [1]): kcat, 200 % wt
- Resistance pattern, I50 fold increase: IM (ALS [2]): IM, 60 fold
- Resistance pattern, I50 fold increase: SU (ALS [2]): SUs, 30-300 fold

B3: P192S: Site-directed mutation in S. cerevisiae ALS; position P197, 178 (protein, UniProt P07342 91-687, looked up, variant P192S)
Acetolactate synthase …: B2 Acetolactate synthase … with P102S, L500F
- Kinetic parameters: Km (ALS [1]): Km, 75 % wt
- Kinetic parameters: kcat (ALS [1]): kcat, 25 % wt
- Resistance pattern, I50 fold increase: IEt (ALS [2]; imazethapyr): IEt, 10 fold
- Resistance pattern, I50 fold increase: SU (ALS [2]): SUs, 400-2000 fold
